The source of these data is patent publication US5912120A, “Cloning, expression and diagnosis of human cytochrome P450 2C19: the principal determinant of s-mephenytoin metabolism” (The United States of America as represented by the …, priority 1994, dated 1999).

Format in all cases: biochemical
Series [1] in a line: Mephenytoin 4'-hydroxylase assay, purified recombinant P450 2C in reconstituted system (Table IV). The following applies: for stereospecificity of 4'-hydroxylation of mephenytoin: purified, reconstituted system (Table IV). Here is the method:
Recombinant yeast microsomes were prepared from a 10-12 l culture, and recombinant P450s were purified by aminooctylsepharose chromatography as described by Iwasaki et al., J. Biol. Chem. 226:3380-3382 (1991). The Emulgen was then removed from protein by adsorption of the protein to a 4 g hydroxylapatite column (Hypatite C, Clarkson Chemical Company, Williamsport, Pa.) equilibrated with 10 mM potassium phosphate buffer (pH 7.2), 20% glycerol, 0.1 mM EDTA, and 0.1 mM DTT and washing the column with the same buffer until the absorbance at 280 nm returned to zero. The P450 was then eluted with […], and dialyzed overnight against 100 mM potassium phosphate buffer (pH 7.4, 20% glycerol and 0.1 mM EDTA. Absolute and CO difference spectra of purified P450s were determined in the same buffer but containing 0.2% Emulgen and 0.5% cholate.
Mephenytoin 4'-hydroxylase activity was measured by a modification of the radiometric HPLC assay described by Shimada et al., J. Biol. Chem. 261:909-921 (1986), as described below. Purified or recombinant yeast microsomes (10-50 pmol) were preincubated with dilauroylphosphatidylcholine (15 μg per 50 pmol P450), P450 reductase (500 U per […] P450), and human cytochrome b5 (2:1 molar ratio when added). The reconstituted mixture was preincubated for 5 min at 37° C., and then placed on ice. A final concentration of 0.4 mM radiolabelled S- or R-mephenytoin (20.7 mCi/mM and 20.9 mCi/mMol) was added to 50 mM HEPES buffer (pH 7.4) containing 0.1 mM EDTA and 1.5 mM MgCl2 for recombinant 2C proteins. The mixture was then incubated at 37° with shaking for 3 min, and the reaction started with the addition of 2mM NADPH and terminated after 30 min with an equal volume of methanol. Cytochrome b5 was not included in all CYP2C18 reactions, since it had no effect or produced a slight inhibition on the activity of this CYP protein. Reaction volumes were generally 0.25 ml except when the volume of recombinant purified cytochrome or yeast microsomes was greater than 50 μl. In these cases, the volume was increased to 0.5 ml to limit the volume of glycerol from the purified preparation to <4% of the final volume.
At the end of the incubation period, the reactions were terminated with an equal volume of methanol. The incubation mixture was centrifuged at 10,000 g for 10 min and an aliquot assayed directly using HPLC without extraction. Samples with particularly low activity were concentrated by lyophilization and redissolved in a small volume of methanol:water (1:1) before assay. The HPLC system consisted of a reverse phase C18 (10 μm) Versapak, 300 mm×4.1 mm column (Altech Associates, Deerfield, Ill.) using an isocratic solvent consisting of methanol:water (45:55) with a flow rate was kept of 1 ml/min for 25 min. Detection of radioactive peaks was accomplished using an on-line Flow-One radiochemical detector (Radiomatic Instruments Co., Tampa, Fla. Detection of the unlabeled 4'-hydroxymephenytoin authentic standard was performed using an on-line multiwavelength UV detector at both 211 and 230 nm.
Recombinant P450s were purified from yeast microsomes and assays performe

A short description of series [2]: Mephenytoin 4'-hydroxylase assay, recombinant human CYP2C yeast microsomes (Table III).
Method: (§1) Purified or recombinant yeast microsomes (10-50 pmol) were preincubated with dilauroylphosphatidylcholine (15 μg per 50 pmol P450), P450 reductase (500 U per 50 mol P450), and human cytochrome b5 (2:1 molar ratio when added). The reconstituted mixture was preincubated for 5 min at 37° C., and then placed on ice. A final concentration of 0.4 mM radiolabelled S- or R-mephenytoin (20.7 mCi/mM and 20.9 mCi/mMol) was added to 50 mM HEPES buffer (pH 7.4) containing 0.1 mM EDTA and 1.5 mM MgCl2 for recombinant 2C proteins. The mixture was then incubated at 37° with shaking for 3 min, and the reaction started with the addition of 2mM NADPH and terminated after 30 min with an equal volume of methanol. […] Reaction volumes were generally 0.25 ml except when the volume of recombinant purified cytochrome or yeast microsomes was greater than 50 μl. In these cases, the volume was increased to 0.5 ml to limit the volume of glycerol from the purified preparation to <4% of the final volume.
Experiment in series [3]: as above
The conditions noted are these: recombinant yeast microsomes + P450 reductase, phospholipid, cytochrome b5 2:1; 0.4 mM substrate, HEPES pH 7.4, 37° C. 30 min; means ± SE.
Method: as §1

Series [4] can be described thus: Tolbutamide hydroxylase assay, recombinant human CYP2C yeast microsomes (Table V). The following applies: 1 mg yeast microsomal protein + purified P450 reductase (1,000 units).
Method: Tolbutamide hydroxylase activity was measured according to Knodell et al., J. Pharmacol. Exper. […] Yeast microsomes (1 mg protein) were preincubated with 300 pmol hamster P450 reductase in 0.2 ml of the incubation buffer (below) for 3 min at 37° C. The reaction was then placed on ice and incubated in 0.2 ml of 50 mM HEPES buffer (pH 7.4) containing 1.5 mM MgCl2, 0.1 mM EDTA in a final volume of 1 ml and 1 mM sodium tolbutamide. The reaction was initiated with 0.5 mM NADPH. Human liver microsomes (0.22 mg protein) were incubated without reductase. Incubations with reconstituted recombinant P450s contained 50 pmol purified P450 enzyme, 150 pmol P450 reductase, and 15 μg dilauroylphosphatidyl-choline, and were performed in 100 mM potassium phosphate buffer (pH 7.4). Reactions were terminated after 60 min at 37° C. by the addition of 50 μl of 4N HCl, followed by extraction with 3 ml of water-saturated ethyl acetate. The ethyl acetate extracts were dried under nitrogen at 40° C., the residue resolubilized in 200 μl methanol, and 4-hydroxytolbutamide then assayed using HPLC by injecting 50 μl of the solubilized extract onto a μBONDAPAK C18 column (4.6×300 mm) using 0.05% phosphoric acid, pH 2.6: acetonitrile (6:4, v/v) as the mobile phase with a flow rate of 1 ml/min. The column eluate was monitored at 230 nm and rates of product formation were determined from standard curves prepared by adding varying amounts of 4-hydroxytolbutamide to incubations conducted without NADPH. […] Samples were analyzed in triplicate.
Where [5] appears, read: purified P450, reconstituted system.

B1: 2C8 Purified from Human Liver: cytochrome P450 2C8 purified from human liver microsomes (protein, UniProt P10632 1-490, looked up)
Cytochrome P450 2C8: MEPFVVLVLCLSFMLLFSLWRQSCRRRKLPPGPTPLPIIGNMLQIDVKDICKSFTNFSKVYGPVFTVYFGMNPIVVFHGYEAVKEALIDNGEEFSGRGNSPISQRITKGLGIISSNGKRWKEIRRFSLTTLRNFGMGKRSIEDRVQEEAHCLVEELRKTKASPCDPTFILGCAPCNVICSVVFQKRFDYKDQNFLTLMKRFNENFRILNSPWIQVCNNFPLLIDCFPGTHNKVLKNVALTRSYIREKVKEHQASLDVNNPRDFIDCFLIKMEQEKDNQKSEFNIENLVGTVADLFVAGTETTSTTLRYGLLLLLKHPEVTAKVQEEIDHVIGRHRSPCMQDRSHMPYTDAVVHEIQRYSDLVPTGVPHAVTTDTKFRNYLIPKGTTIMALLTSVLHDDKEFPNPNIFDPGHFLDKNGNFKKSDYFMPFSAGKRICAGEGLARMELFLFLTTILQNFNLKSVDDLKNLNTTAVTKGIVSLPPSYQICFIPV
For B1, the “R/S Ratio” value in series [1] (setting [5]) amounted to 1.6.

B2: 2C9: recombinant human cytochrome P450 2C9, allele not specified in the text (protein, UniProt P11712 1-490, looked up)
Cytochrome P450 2C9: MDSLVVLVLCLSCLLLLSLWRQSSGRGKLPPGPTPLPVIGNILQIGIKDISKSLTNLSKVYGPVFTLYFGLKPIVVLHGYEAVKEALIDLGEEFSGRGIFPLAERANRGFGIVFSNGKKWKEIRRFSLMTLRNFGMGKRSIEDRVQEEARCLVEELRKTKASPCDPTFILGCAPCNVICSIIFHKRFDYKDQQFLNLMEKLNENIKILSSPWIQICNNFSPIIDYFPGTHNKLLKNVAFMKSYILEKVKEHQESMDMNNPQDFIDCFLMKMEKEKHNQPSEFTIESLENTAVDLFGAGTETTSTTLRYALLLLLKHPEVTAKVQEEIERVIGRNRSPCMQDRSHMPYTDAVVHEVQRYIDLLPTSLPHAVTCDIKFRNYLIPKGTTILISLTSVLHDNKEFPNPEMFDPHHFLDEGGNFKKSKYFMPFSAGKRICVGEALAGMELFLFLTSILQNFNLKSLVDPKNLDTTPVVNGFASVPPFYQLCFIPV
As for B2, in series [2] (recombinant yeast microsomes), the “rate of 4'-hydroxylation of S-mephenytoin” value came to 0.02 nmol/min/nmol. Also, the “turnover number higher than the activity of 2C9 purified from human liver” value in series [1] (S-mephenytoin 4'-hydroxylation) is on record as ~ 100 times. Further, the “stereospecificity of 4'-hydroxylation of mephenytoin” value in series [1] is listed as “not stereospecific”.

B3: 2C9 Purified from Human Liver: cytochrome P450 2C9 purified from human liver microsomes (protein, UniProt P11712 1-490, looked up)
Cytochrome P450 2C9: B2 Cytochrome P450 2C9
Take B3: the “R/S Ratio” value in series [1] (setting [5]) came to 1.6.

B4: 2C18-Thr^385 (29c): recombinant human P450 2C18 allelic variant, clone 29c (Thr at 385), in yeast microsomes; residue 2 not stated in Table III (protein, UniProt P33260 26-490, looked up)
Cytochrome P450 2C18: RGRLPSGPTPLPIIGNILQLDVKDMSKSLTNFSKVYGPVFTVYFGLKPIVVLHGYEAVKEALIDHGEEFSGRGSFPVAEKVNKGLGILFSNGKRWKEIRRFCLMTLRNFGMGKRSIEDRVQEEARCLVEELRKTNASPCDPTFILGCAPCNVICSVIFHDRFDYKDQRFLNLMEKFNENLRILSSPWIQVCNNFPALIDYLPGSHNKIAENFAYIKSYVLERIKEHQESLDMNSARDFIDCFLIKMEQEKHNQQSEFTVESLIATVTDMFGAGTETTSTTLRYGLLLLLKYPEVTAKVQEEIECVVGRNRSPCMQDRSHMPYTDAVVHEIQRYIDLLPTNLPHAVTCDVKFKNYLIPKGTTIITSLTSVLHNDKEFPNPEMFDPGHFLDKSGNFKKSDYFMPFSAGKRMCMGEGLARMELFLFLTTILQNFNLKSQVDPKDIDITPIANAFGRVPPLYQLCFIPV
For B4, the “Mephenytoin 4'-Hydroxylase Activity S” value in series [2] (recombinant yeast microsomes + P450 reductase, phospholipid, cytochrome b5 2:1, 0.4 mM substrate, HEPES pH 7.4, 37° C. 30 min, means ± SE) is reported as 0.042 ± 0.004 nmol/min/nmol P450; in series [2] (recombinant yeast microsomes, no b5), 0.034 ± 0.008 nmol/min/nmol P450. Further, the “R/S Ratio” value in series [2] (recombinant yeast microsomes, with cytochrome b5) stood at 1.3. The “Mephenytoin 4'-Hydroxylase Activity R” value in series [3] was determined as 0.054 ± 0.003 nmol/min/nmol P450.

B5: 2C18: recombinant human cytochrome P450 2C18, variant not specified in the text (protein, UniProt P33260 26-490, looked up)
Cytochrome P450 2C18: B4 Cytochrome P450 2C18
Turning to B5, the “stereospecificity of 4'-hydroxylation of mephenytoin” value in series [1] is “stereoselective for the R-enantiomer”.

B6: 2C18-Asp^2 Thr^385 (29c-1a): recombinant human P450 2C18, clone 29c with correct Asp^2, Thr^385 (protein, UniProt P33260 26-490, looked up)
Cytochrome P450 2C18: B4 Cytochrome P450 2C18
With B6, the “Tolbutamide Hydroxylase Activity (nmol/min/nmol P450)” value in series [4] (adjusted for P450 content) is given as 0.19 ± 0.02 nmol/min/nmol P450. Moreover, the “Tolbutamide Hydroxylase Activity (nmol/min/mg protein)” value in series [4] (means ±SE) was determined as 9.3 ± 0.7 nmol/min/mg protein. The “R/S Ratio” value in series [1] (setting [5]) is 1.3. Moreover, the “Mephenytoin 4'-Hydroxylase Activity S” value in series [1] (purified P450, reconstituted system, triplicate, means ± SE, blank not subtracted) was determined as 0.116 ± 0.010 nmol/min/nmol P450. The “Mephenytoin 4'-Hydroxylase Activity R” value in series [1] (triplicate, means ± SE, blank not subtracted) came to 0.147 ± 0.025 nmol/min/nmol P450.
